# Values quoted from earlier work in patent US7759315B2, “Treatment of inflammatory conditions of the intestine” (CSL Behring AG, priority 2005, dated 2010).
# Non-standard residues stand in square brackets, D forms with d. No end group written: not given here. Orn = NCCC[C@H](N)C(=O)O; Aib = CC(C)(N)C(=O)O
# Molecular target: T1, LCAT (Homo sapiens, UniProt P04180)
# T1 sequence (P04180 25-440): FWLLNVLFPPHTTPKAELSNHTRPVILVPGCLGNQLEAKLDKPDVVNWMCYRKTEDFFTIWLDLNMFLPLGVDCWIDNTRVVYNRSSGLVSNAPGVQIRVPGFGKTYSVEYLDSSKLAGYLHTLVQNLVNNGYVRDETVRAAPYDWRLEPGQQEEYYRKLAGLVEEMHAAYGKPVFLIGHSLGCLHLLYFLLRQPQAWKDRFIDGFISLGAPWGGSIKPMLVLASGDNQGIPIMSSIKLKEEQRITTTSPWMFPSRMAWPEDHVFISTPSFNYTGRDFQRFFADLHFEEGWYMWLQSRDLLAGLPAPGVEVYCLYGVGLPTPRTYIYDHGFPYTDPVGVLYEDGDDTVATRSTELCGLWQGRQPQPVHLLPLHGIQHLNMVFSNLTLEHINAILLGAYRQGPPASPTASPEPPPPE
row,Substance,ACTIVITY (%) LCAT
1,PVLDEFRELYNEXLEALKQKLK (PVLDEFRELYNE[Aib]LEALKQKLK; not fully specified (C-terminus)) [Peptide 92],5%
2,PVLDEFRKKLNEXLEALKQKLK (PVLDEFRKKLNE[Aib]LEALKQKLK; not fully specified (C-terminus)) [Peptide 69],13%
3,PVLDEFRWKLNEXLEALKQKLK (PVLDEFRWKLNE[Aib]LEALKQKLK; not fully specified (C-terminus)) [Peptide 61],16%
4,PVLDEFWEKLNEXLEALKQKLK (PVLDEFWEKLNE[Aib]LEALKQKLK; not fully specified (C-terminus)) [Peptide 73],10%
5,PVLDFFREKLNEXLEALKQKLK (PVLDFFREKLNE[Aib]LEALKQKLK; not fully specified (C-terminus)) [Peptide 63],16%
6,"PVLDFFRELLEELKQKLK* (not fully specified (N-terminus, C-terminus); printed as PVLDFFRELLEELKQKLK*) [Peptide 204]",63%
7,PVLDKFREKLNEXLEALKQKLK (PVLDKFREKLNE[Aib]LEALKQKLK; not fully specified (C-terminus)) [Peptide 74],10%
8,PVLDKFRELLNEXLEALKQKLK (PVLDKFRELLNE[Aib]LEALKQKLK) [Peptide 88],7%
9,PVLDLFDNLLDRLLDLLNKKLK [Peptide 173],15%
10,PVLDLFERLLNELLEALQKKLK [Peptide 80],9%
11,"PVLDLFKELLEELKQKLK* (not fully specified (N-terminus, C-terminus); printed as PVLDLFKELLEELKQKLK*) [Peptide 192]",100%
12,PVLDLFKELLQELLEALKQKLK [Peptide 11],72%
13,"PVLDLFOELLEELOQOLK* (PVLDLF[Orn]ELLEEL[Orn]Q[Orn]LK; not fully specified (N-terminus, C-terminus); printed as PVLDLFOELLEELOQOLK*) [Peptide 212]",43%
14,"PVLDLFREGLEELKQKLK* (not fully specified (N-terminus, C-terminus); printed as PVLDLFREGLEELKQKLK*) [Peptide 228]",0%
15,PVLDLFREGLNELLEALKQKLK [Peptide 20],57%
16,PVLDLFREGWEELKQKLK [Peptide 224],8%
17,PVLDLFREKLNEELEALKQKLK [Peptide 106],0%
18,PVLDLFREKLNELLEALKQKLK [Peptide 33],33%
19,"PVLDLFRELGEELKQKLK* (not fully specified (N-terminus, C-terminus); printed as PVLDLFRELGEELKQKLK*) [Peptide 227]",0%
20,PVLDLFRELGNELLEALKQKLK [Peptide 9],83%
21,"PVLDLFRELLEEGKQKLK* (not fully specified (N-terminus, C-terminus); printed as PVLDLFRELLEEGKQKLK*) [Peptide 229]",0%
22,"PVLDLFRELLEELKNKLK* (not fully specified (N-terminus, C-terminus); printed as PVLDLFRELLEELKNKLK*) [Peptide 196]",81%
23,"PVLDLFRELLEELOQOLO* (PVLDLFRELLEEL[Orn]Q[Orn]L[Orn]; not fully specified (N-terminus, C-terminus); printed as PVLDLFRELLEELOQOLO*) [Peptide 211]",45%

row,Substance,ACTIVITY (%) LCAT
1,PVLDLFRELLNEELEALKQKLK [Peptide 98],2%
2,PVLDLFRELLNELLEAGKQKLK [Peptide 12],70%
3,PVLDLFRELLNELLEALKQKKK [Peptide 56],18%
4,PVLDLFRELLNELLEALQKKLK [Peptide 24],53%
5,PVLDLFRELLNELLEGLKQKLK [Peptide 22],54%
6,PVLDLFRELLNELLELLKQKLK [Peptide 127],47%
7,PVLDLFRELLNELLE~~~~~~~ [Peptide 97],4%
8,"PVLDLFRELLNELLQKLK* (not fully specified (N-terminus, C-terminus); printed as PVLDLFRELLNELLQKLK*) [Peptide 218]",29%
9,PVLDLFRELLNELWQKLK [Peptide 219],24%
10,PVLDLFRELLNLXLEALKEKLK (PVLDLFRELLNL[Aib]LEALKEKLK; not fully specified (C-terminus)) [Peptide 102],2%
11,"PVLDLFREWLEELKQKLK* (not fully specified (N-terminus, C-terminus); printed as PVLDLFREWLEELKQKLK*) [Peptide 205]",60%
12,PVLDLFRNLLEELLKALEQKLK [Peptide 57],18%
13,"PVLDLLRELLEELKQKLK* (not fully specified (N-terminus, C-terminus); printed as PVLDLLRELLEELKQKLK*) [Peptide 191]",100%
14,PVLDLLRELLNELLEALKQKLK [Peptide 16],59%
15,PVLEFFENLLERLLDALQKKLK [Peptide 157],30%
16,PVLELFDNLLDKLLDALQKKLR [Peptide 180],8%
17,PVLELFDNLLEKLLEALQKKLR [Peptide 178],9%
18,PVLELFDNLLERLLDALQKKLK [Peptide 179],8%
19,PVLELFENGLERLLDALQKKLK [Peptide 167],18%
20,PVLELFENLGERLLDALQKKLK [Peptide 151],55%
21,PVLELFENLLEKLLDALQKKLK [Peptide 169],17%
22,PVLELFENLLEKLLDLLQKKLK [Peptide 171],16%
23,PVLELFENLLEKLLEALQKKLK [Peptide 182],7%

row,Substance,ACTIVITY (%) LCAT
1,PVLELFENLLEOLLDALQOOLO (PVLELFENLLE[Orn]LLDALQ[Orn][Orn]L[Orn]) [Peptide 170],17%
2,PVLELFENLLERLFDALQKKLK [Peptide 147],76%
3,PVLELFENLLERLLDALQOOLO (PVLELFENLLERLLDALQ[Orn][Orn]L[Orn]; not fully specified (C-terminus)) [Peptide 185],3%
4,PVLELFENLLERLLDLLQKKLK [Peptide 165],23%
5,PVLELFENLLERLLEALQKKLK [Peptide 161],27%
6,PVLELFENLLERLLELLNKKLK [Peptide 175],13%
7,PVLELFENLLERWLDALQKKLK [Peptide 181],8%
8,PVLELFEQLLEKLLDALQKKLK [Peptide 168],17%
9,PVLELFERLLDELLNALQKKLK [Peptide 86],7%
10,PVLELFKELLEELKQKLK [Peptide 216],35%
11,"PVLELFKELLEELKQKLK* (not fully specified (N-terminus, C-terminus); printed as PVLELFKELLEELKQKLK*) [Peptide 195]",87%
12,PVLELFKELLQELLEALKQKLK [Peptide 17],59%
13,PVLELFLNLLEKLLDALQKKLK [Peptide 166],22%
14,PVLELFLNLLERLGDALQKKLK [Peptide 172],16%
15,PVLELFLNLLERLLDALQKKLK [Peptide 156],35%
16,PVLELFLNLLERLLDAWQKKLK [Peptide 184],4%
17,PVLELFLNLWERLLDALQKKLK [Peptide 155],38%
18,"PVLELLKELLEELKQKLK* (not fully specified (N-terminus, C-terminus); printed as PVLELLKELLEELKQKLK*) [Peptide 207]",50%
19,PVLELWENLLERLLDALQKKLK [Peptide 176],11%
20,PWLDEFREKLNEXLEALKQKLK (PWLDEFREKLNE[Aib]LEALKQKLK; not fully specified (C-terminus)) [Peptide 64],15%
21,VVLDLFRELLNELLEALKQKLK [Peptide 53],19%
22,XVLDLFRELLNELLEALKQKLK ([Aib]VLDLFRELLNELLEALKQKLK; not fully specified (C-terminus)) [Peptide 32],33%
23,"pVLDLFRELLEELKQKLK* ([dP]VLDLFRELLEELKQKLK; not fully specified (N-terminus, C-terminus); printed as pVLDLFRELLEELKQKLK*; also: * mark of unstated meaning) [Peptide 214]",39%
